Target: neurofascin on purified rat DRG neurons (rat) (UniProt P97685)
Assay: cell-based or functional assay

Sequence of UniProt P97685 (P97685 25-1240, form in doubt): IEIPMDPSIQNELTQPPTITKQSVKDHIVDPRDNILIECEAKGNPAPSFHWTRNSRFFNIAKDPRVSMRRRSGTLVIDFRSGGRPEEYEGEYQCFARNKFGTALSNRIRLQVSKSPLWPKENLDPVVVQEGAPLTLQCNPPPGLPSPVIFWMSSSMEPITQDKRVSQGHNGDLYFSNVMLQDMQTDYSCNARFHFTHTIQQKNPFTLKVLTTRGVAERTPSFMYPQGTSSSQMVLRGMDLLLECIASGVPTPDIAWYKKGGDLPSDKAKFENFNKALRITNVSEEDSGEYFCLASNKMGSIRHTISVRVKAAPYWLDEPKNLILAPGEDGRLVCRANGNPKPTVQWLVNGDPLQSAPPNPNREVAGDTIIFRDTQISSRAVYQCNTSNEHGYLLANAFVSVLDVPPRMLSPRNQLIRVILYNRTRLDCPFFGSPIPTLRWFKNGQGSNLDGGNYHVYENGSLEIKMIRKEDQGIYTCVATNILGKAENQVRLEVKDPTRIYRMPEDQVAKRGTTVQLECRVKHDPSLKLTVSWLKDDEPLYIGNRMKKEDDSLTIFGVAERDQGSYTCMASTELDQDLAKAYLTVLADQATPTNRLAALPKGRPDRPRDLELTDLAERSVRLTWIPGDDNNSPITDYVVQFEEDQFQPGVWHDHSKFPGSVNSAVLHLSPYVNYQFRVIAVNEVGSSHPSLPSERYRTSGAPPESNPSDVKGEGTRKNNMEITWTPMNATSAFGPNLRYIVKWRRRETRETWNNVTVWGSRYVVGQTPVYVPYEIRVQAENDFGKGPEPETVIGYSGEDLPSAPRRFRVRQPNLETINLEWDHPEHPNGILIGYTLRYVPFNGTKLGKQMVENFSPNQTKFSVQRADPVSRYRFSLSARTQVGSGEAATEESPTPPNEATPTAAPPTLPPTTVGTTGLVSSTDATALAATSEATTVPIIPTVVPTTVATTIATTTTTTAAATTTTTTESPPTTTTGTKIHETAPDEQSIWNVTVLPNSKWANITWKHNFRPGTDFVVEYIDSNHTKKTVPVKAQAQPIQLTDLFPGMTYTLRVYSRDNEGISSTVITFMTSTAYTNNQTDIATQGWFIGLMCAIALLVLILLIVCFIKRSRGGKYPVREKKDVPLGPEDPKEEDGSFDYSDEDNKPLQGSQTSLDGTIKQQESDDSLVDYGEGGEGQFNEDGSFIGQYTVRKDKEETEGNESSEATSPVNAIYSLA

B1: OLF-Fc (Fc-fusion protein containing the olfactomedin domain of gliomedin) (Fc fusion, part only; not given: human Fc, part only)
chain, part: NDDTLVGRADEKVNERHSPQTEPMITSIGNPAQVLKVKETFGTWLRESANRSDDRIWVTEHFSGIMVKEFEDLPALLNSSFTLLHLPHYFHGCGHAVYNNSLYYHKGGSNTIVRFEFGKETPQTLKLEDALYFDRKYLFANSKTYFNIAVDEKGLWIIYASSVDGSSILVAQLDERTFSVLRHINTTYPKSKAGNAFIAQGILYVTDTKDTRVTFAFDLLRGKQINANFGLRMSQSVLAMLSYNMRDQHLYSWEDGHLMLYPVHFSSTAPS
With B1 the OLF-Fc clusters co-localized with neurofascin clusters was 96%.

From patent publication US20100129288A1
